Bridge positions count the residues as written; N and C are the ends. Ends that are not written are not given here. DBMNB = photocleavable intramolecular cysteine cross-linker
Molecular target: T1, PI3-Kα SH3 domain (Homo sapiens, UniProt P27986)
T1 construct: As a functional protein, an SH3 domain protein of PI3-Kα was used
Assay: Circular dichroism (CD) differential spectra of peptide / PI3-Kα SH3 domain mixtures: photoregulation of peptide-protein complex formation
Format: binding
Procedure: As a functional protein, an SH3 domain protein of PI3-Kα was used. The PI3-Kα SH3 domain interacts with RLP1. The peptide having an intramolecular cross-linkage obtained in the manner as described above and the PI3-Kα SH3 domain were mixed in 10 mM phosphate buffer solution (pH 7.0), to obtain Mixture solution (I) in which the concentration of the peptide having an intramolecular cross-linkage was 100 microM and that of the PI3-Kα SH3 domain was 20 microM.
Then, Mixture solution (I) was irradiated with UV light. Irradiation was performed by using Minilite II manufactured by Continuum as a UV irradiator, with pulsed light at wavelength of 355 nm (third harmonic of Nd-YAG laser, pulse width 5 ns, 10 Hz, pulse intensity 4 mJ/cm^2) at 4° C. for 30 minutes. By UV irradiation, either one of the bonds between cysteine and DBMNB in the peptide having an intramolecular cross-linkage was cleaved. This was named Mixture solution (II).
Used sample solutions are shown below.
(i) Mixture solution (I) (ii) Mixture solution (II) (iii) Uncross-linked peptide RLP1 100 microM (10 mM phosphate buffer solution, pH 7.0) (iv) Peptide having an intramolecular cross-linkage (not irradiated with UV light) 100 microM (10 mM phosphate buffer solution, pH 7.0) (v) PI3-Kα SH3 domain 20 microM (10 mM phosphate buffer solution, pH 7.0) (vi) Mixture solution prepared by mixing an uncross-linked peptide RLP1 and a PI3-Kα SH3 domain in 10 mM phosphate buffer solution (pH 7.0), so that the concentration of the uncross-linked peptide is 100 microM and that of the PI3-Kα SH3 domain is 20 microM.
The horizontal axis of the graph represents wavelength of circularly polarized light (Wavelength/nm), and the vertical axis represents intensity of circular dichroism (Δθ/mdeg). In the graph of FIG. 7, “dark” represents different-al spectrum obtained by subtracting CD spectrum (iv) of the peptide having an intramolecular cross-linkage and CD spectrum (v) of the PI3-Kα SH3 domain from CD spectrum (i) of Mixture solution (I). Further, “light” represents differential spectrum obtained by subtracting CD spectrum (i) of Mixture solution (I) from CD spectrum (ii) of Mixture solution (II).

T1 sequence (P27986 3-79 limits assumed): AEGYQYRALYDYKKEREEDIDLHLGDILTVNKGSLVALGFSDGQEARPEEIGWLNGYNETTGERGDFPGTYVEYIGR

**Q.** RKLPPRSK [RLP1, reference compound] was tested. Which “differential CD spectrum of mixture with PI3-Kα SH3 domain minus peptide and SH3 domain spectra (peak ascribable to formation of complex)” value (uncross-linked peptide 100 microM, SH3 domain 20 microM, 10 mM phosphate buffer pH 7.0, no irradiation) did it give?
**A.** Its value is “positive peak was observed around 220 nm”.

**Q.** Which results are given for “peptide having an intramolecular cross-linkage: RLP1-2C (Cys Arg Lys Leu Pro Pro Arg Ser Lys Cys) intramolecularly cross-linked between its cysteines via photocleavable DBMNB, cyclic (CRKLPPRSKC; linker 1-10 via DBMNB)”?
**A.** interaction with specific recognizing site of the PI3-Kα SH3 domain (differential CD spectrum "dark") (Mixture solution (I), not irradiated, peptide 100 microM, SH3 domain 20 microM, 10 mM phosphate buffer pH 7.0, room temperature): no interaction; differential CD spectrum "light" (Mixture solution (II) minus Mixture solution (I)) (after UV irradiation 355 nm pulsed light, 4° C., 30 minutes, peptide 100 microM, SH3 domain 20 microM, pH 7.0): positive peak was observed around 220 nm; complex formation with PI3-Kα SH3 domain (after UV irradiation (cyclic structure dissociated)): forms a complex
